In the supplement of paper PMC10567573:

B1: FBXO3 (parent)
chain: HDPLWRRHCKKYWLISEEEKTQKN

Variants of: B1
Experiment: protein stability index of a GFP-peptide fusion (GPS, HEK-293T) (PSI 1-6); higher = more stable
Settings: c terminus: a fixed tail appended
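Also: lentivirally expressed fusions sorted by FACS into six bins by GFP to DsRed ratio, PSI derived from sequencing read proportions per bin multiplied by bin number.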

Variant | protein stability index
NDPLWRRHCKKYWLISEEEKTQKN | 3.38
KDPLWRRHCKKYWLISEEEKTQKN | 3.21
EDPLWRRHCKKYWLISEEEKTQKN | 3.84
LDPLWRRHCKKYWLISEEEKTQKN | 3.85
QDPLWRRHCKKYWLISEEEKTQKN | 3.13
GDPLWRRHCKKYWLISEEEKTQKN | 3.29
VDPLWRRHCKKYWLISEEEKTQKN | 3.38
CDPLWRRHCKKYWLISEEEKTQKN | 3.53
IDPLWRRHCKKYWLISEEEKTQKN | 2.06
DDPLWRRHCKKYWLISEEEKTQKN | 4.12
FDPLWRRHCKKYWLISEEEKTQKN | 2.34
ADPLWRRHCKKYWLISEEEKTQKN | 3.78
SDPLWRRHCKKYWLISEEEKTQKN | 3.62
WDPLWRRHCKKYWLISEEEKTQKN | 2.15
RDPLWRRHCKKYWLISEEEKTQKN | 2.8
TDPLWRRHCKKYWLISEEEKTQKN | 3.66
PDPLWRRHCKKYWLISEEEKTQKN | 3.74
YDPLWRRHCKKYWLISEEEKTQKN | 2.12
HDPLDRRHCKKYWLISEEEKTQKN | 4.18
HDPLARRHCKKYWLISEEEKTQKN | 4.33
HDPLNRRHCKKYWLISEEEKTQKN | 3.89
HDPLSRRHCKKYWLISEEEKTQKN | 4.08
HDPLHRRHCKKYWLISEEEKTQKN | 3.94
HDPLRRRHCKKYWLISEEEKTQKN | 3.42

Variant | protein stability index
HDPLIRRHCKKYWLISEEEKTQKN | 3.99
HDPLFRRHCKKYWLISEEEKTQKN | 4.56
HDPLMRRHCKKYWLISEEEKTQKN | 4.39
HDPLKRRHCKKYWLISEEEKTQKN | 3.62
HDPLCRRHCKKYWLISEEEKTQKN | 3.77
HDPLPRRHCKKYWLISEEEKTQKN | 3.78
HDPLQRRHCKKYWLISEEEKTQKN | 4.25
HDPLYRRHCKKYWLISEEEKTQKN | 4.71
HDPLGRRHCKKYWLISEEEKTQKN | 3.96
HDPLTRRHCKKYWLISEEEKTQKN | 4.76
HDPLVRRHCKKYWLISEEEKTQKN | 3.81
HDPLERRHCKKYWLISEEEKTQKN | 4.07
HDPLLRRHCKKYWLISEEEKTQKN | 4.35
HDPLWRFHCKKYWLISEEEKTQKN | 2.21
HDPLWRHHCKKYWLISEEEKTQKN | 3.02
HDPLWREHCKKYWLISEEEKTQKN | 3.31
HDPLWRDHCKKYWLISEEEKTQKN | 3.8
HDPLWRWHCKKYWLISEEEKTQKN | 2.68
HDPLWRSHCKKYWLISEEEKTQKN | 3.46
HDPLWRGHCKKYWLISEEEKTQKN | 4.02
HDPLWRIHCKKYWLISEEEKTQKN | 3.14
HDPLWRAHCKKYWLISEEEKTQKN | 3.39
HDPLWRMHCKKYWLISEEEKTQKN | 2.86
HDPLWRNHCKKYWLISEEEKTQKN | 3.46

Variant | protein stability index
HDPLWRVHCKKYWLISEEEKTQKN | 2.71
HDPLWRTHCKKYWLISEEEKTQKN | 3.53
HDPLWRKHCKKYWLISEEEKTQKN | 3.22
HDPLWRYHCKKYWLISEEEKTQKN | 2
HDPLWRCHCKKYWLISEEEKTQKN | 2.95
HDPLWRQHCKKYWLISEEEKTQKN | 3.54
HDPLWRPHCKKYWLISEEEKTQKN | 4.42
HDPLWRLHCKKYWLISEEEKTQKN | 3.14
HDPHWRRHCKKYWLISEEEKTQKN | 3.45
HDPIWRRHCKKYWLISEEEKTQKN | 2.93
HDPPWRRHCKKYWLISEEEKTQKN | 3.73
HDPKWRRHCKKYWLISEEEKTQKN | 2.95
HDPRWRRHCKKYWLISEEEKTQKN | 2.33
HDPGWRRHCKKYWLISEEEKTQKN | 3.75
HDPSWRRHCKKYWLISEEEKTQKN | 3.87
HDPVWRRHCKKYWLISEEEKTQKN | 3.32
HDPMWRRHCKKYWLISEEEKTQKN | 3.26
HDPEWRRHCKKYWLISEEEKTQKN | 2.9
HDPNWRRHCKKYWLISEEEKTQKN | 3.52
HDPQWRRHCKKYWLISEEEKTQKN | 3.88
HDPYWRRHCKKYWLISEEEKTQKN | 3.45
HDPCWRRHCKKYWLISEEEKTQKN | 3.51
HDPAWRRHCKKYWLISEEEKTQKN | 2.92
HDPWWRRHCKKYWLISEEEKTQKN | 3.63

Variant | protein stability index
HDPTWRRHCKKYWLISEEEKTQKN | 4.35
HDPDWRRHCKKYWLISEEEKTQKN | 4.6
HDPFWRRHCKKYWLISEEEKTQKN | 3.52
HNPLWRRHCKKYWLISEEEKTQKN | 2.78
HRPLWRRHCKKYWLISEEEKTQKN | 2.86
HIPLWRRHCKKYWLISEEEKTQKN | 2.25
HSPLWRRHCKKYWLISEEEKTQKN | 1.81
HYPLWRRHCKKYWLISEEEKTQKN | 2.56
HEPLWRRHCKKYWLISEEEKTQKN | 2.62
HQPLWRRHCKKYWLISEEEKTQKN | 2.91
HMPLWRRHCKKYWLISEEEKTQKN | 2.63
HGPLWRRHCKKYWLISEEEKTQKN | 1.62
HLPLWRRHCKKYWLISEEEKTQKN | 2.24
HTPLWRRHCKKYWLISEEEKTQKN | 1.87
HPPLWRRHCKKYWLISEEEKTQKN | 3.13
HKPLWRRHCKKYWLISEEEKTQKN | 2.58
HHPLWRRHCKKYWLISEEEKTQKN | 2.18
HFPLWRRHCKKYWLISEEEKTQKN | 2.33
HAPLWRRHCKKYWLISEEEKTQKN | 2.58
HVPLWRRHCKKYWLISEEEKTQKN | 1.97
HWPLWRRHCKKYWLISEEEKTQKN | 1.97
HCPLWRRHCKKYWLISEEEKTQKN | 2.26
